Target: mouse CD8 (mouse) (UniProt P01731)
Experiment: cell ELISA on dried mouse thymocytes containing CD8+ cells, detection with biotinylated MO3

**Q.** With “native trypanosome-derived lymphocyte triggering factor (TLTF), antibody affinity purified (ligand)” as the substance, how does the dilution of TLTF down to which a signal above background was obtained read?
**A.** Its dilution of TLTF down to which a signal above background was obtained is 0.001 dilution.
